Measurements as given in patent publication US20050048477A1 (published 2005).

T1: Gal80-Fpr1p fusion (yeast, UniProt P04387 1-435; P20081 1-114)
T1 construct: Encoded on a pRS416 backbone; also called pGP82; not shown: 2 HA tags derived from oligonucleotides GANG33/34 (DNA only)
T1 sequence (looked up): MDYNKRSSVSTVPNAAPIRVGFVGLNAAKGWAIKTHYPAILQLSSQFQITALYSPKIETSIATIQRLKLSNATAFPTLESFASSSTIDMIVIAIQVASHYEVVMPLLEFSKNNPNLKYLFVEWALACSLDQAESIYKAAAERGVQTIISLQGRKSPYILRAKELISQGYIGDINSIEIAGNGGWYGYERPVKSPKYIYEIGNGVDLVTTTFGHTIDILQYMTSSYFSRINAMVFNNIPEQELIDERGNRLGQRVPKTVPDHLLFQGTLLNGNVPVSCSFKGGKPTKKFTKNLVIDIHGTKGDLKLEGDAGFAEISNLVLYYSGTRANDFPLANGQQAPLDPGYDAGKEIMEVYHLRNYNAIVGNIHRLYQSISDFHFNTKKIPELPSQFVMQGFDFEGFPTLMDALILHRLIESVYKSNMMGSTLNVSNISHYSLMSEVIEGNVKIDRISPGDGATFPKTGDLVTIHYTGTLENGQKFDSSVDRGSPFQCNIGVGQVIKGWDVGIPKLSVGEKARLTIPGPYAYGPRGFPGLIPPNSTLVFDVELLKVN

T2: wild type Gal3p (yeast, UniProt P13045 1-520)
T2 construct: also called native Gal3p
T2 sequence (looked up): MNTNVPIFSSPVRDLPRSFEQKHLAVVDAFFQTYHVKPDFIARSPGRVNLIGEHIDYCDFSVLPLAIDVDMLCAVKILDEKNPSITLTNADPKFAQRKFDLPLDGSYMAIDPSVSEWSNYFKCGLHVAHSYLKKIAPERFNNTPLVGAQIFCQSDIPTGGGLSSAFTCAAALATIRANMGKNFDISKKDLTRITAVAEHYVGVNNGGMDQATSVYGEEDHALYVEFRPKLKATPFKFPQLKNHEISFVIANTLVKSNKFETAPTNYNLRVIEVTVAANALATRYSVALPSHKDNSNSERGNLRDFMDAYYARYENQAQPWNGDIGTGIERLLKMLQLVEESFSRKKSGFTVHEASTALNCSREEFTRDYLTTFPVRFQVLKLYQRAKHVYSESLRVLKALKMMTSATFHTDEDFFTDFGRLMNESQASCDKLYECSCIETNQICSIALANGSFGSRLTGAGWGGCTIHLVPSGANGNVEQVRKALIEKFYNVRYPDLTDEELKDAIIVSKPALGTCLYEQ

B1: Myr-Hom3p (other, yeast)
chain: MGCTVSTQTIGDESDPMPMDFQPTSSHSNWVVQKFGGTSVGKFPVQIVDDIVKHYSKPDGPNNNVAVVCSARSSYTKAEGTTSRLLKCCDLASQESEFQDIIEVIRQDHIDNADRFILNPALQAKLVDDTNKELELVKKYLNASKVLGEVSSRTVDLVMSCGEKLSCLFMTALCNDRGCKAKYVDLSHIVPSDFSASALDNSFYTFLVQALKEKLAPFVSAKERIVPVFTGFFGLVPTGLLNGVGRGYTDLCAALIAVAVNADELQVWKEVDGIFTADPRKVPEARLLDSVTPEEASELTYYGSEVIHPFTMEQVIRAKIPIRIKNVQNPLGNGTIIYPDNVAKKGESTPPHPPENLSSSFYEKRKRGATAITTKNDIFVINIHSNKKTLSHGFLAQIFTILDKYKLVVDLISTSEVHVSMALPIPDADSLKSLRQAEEKLRILGSVDITKKLSIVSLVGKHMKQYIGIAGTMFTTLAEEGINIEMISQGANEINISCVINESDSIKALQCIHAKLLSERTNTSNQFEHAIDERLEQLKRLGI
modifications: N-myristoylation at the N-terminal signal
notes: Encoded on a pRS424 backbone under the ADH2 promoter; also called pGP130; not shown: CFP amplified from pDH3
B2: Gal80p (other, yeast, UniProt P04387 1-435, looked up)
chain: MDYNKRSSVSTVPNAAPIRVGFVGLNAAKGWAIKTHYPAILQLSSQFQITALYSPKIETSIATIQRLKLSNATAFPTLESFASSSTIDMIVIAIQVASHYEVVMPLLEFSKNNPNLKYLFVEWALACSLDQAESIYKAAAERGVQTIISLQGRKSPYILRAKELISQGYIGDINSIEIAGNGGWYGYERPVKSPKYIYEIGNGVDLVTTTFGHTIDILQYMTSSYFSRINAMVFNNIPEQELIDERGNRLGQRVPKTVPDHLLFQGTLLNGNVPVSCSFKGGKPTKKFTKNLVIDIHGTKGDLKLEGDAGFAEISNLVLYYSGTRANDFPLANGQQAPLDPGYDAGKEIMEVYHLRNYNAIVGNIHRLYQSISDFHFNTKKIPELPSQFVMQGFDFEGFPTLMDALILHRLIESVYKSNMMGSTLNVSNISHYSL

Columns and labels:
[1] = molecular target: T1, Gal80-Fpr1p fusion; experiment: 80-Trap assay in yeast, HIS3 reporter growth without galactose
Protocol: FIG. 4A illustrates FK506-dependent HIS3 reporter expression. Gal80-Fpr1 designates the Gal80-Fpr1p fusion. Myr-Cna1 designates the plasma membrane targeted Cna1p. Myr-Cmd1 is a plasma membrane targeted calmodulin and is used as a control. The nutrient agar plates used here lacked histidine, tryptophan and uracil and contained 0.5% galactose/3% glycerol/2% lactic acid as carbon source. FK506 was used at 0.25 μg/mL where indicated. Identical results were obtained using nutrient agar lacking galactose (data not shown). […] The nutrient agar plate lacked histidine, tryptophan and uracil and contained 3% glycerol/2% lactic acid as carbon source. Galactose was used at 0.5% where indicated. The lack of tryptophan and uracil are required for selection and maintenance in yeast of the two plasmids Gal80-Fpr1p and Myr-Cna1p, and the lack of histidine is to provide a selective assay for the protein-protein interaction that activates the HIS3 reporter gene carried on a yeast chromosome.
FK506 was used to trigger the interaction between a Gal80-Fpr1p fusion and plasma membrane-localized Myr-Can1p. […] Induction of the galactose-inducible HIS3 reporter gene was assayed. […] It has been reported that Fpr1p also interacts with Hom3p, the aspartokinase, in the absence of FK506 in a yeast two-hybrid assay (Alarcon and Heitman, 1997, Mol. Cell Bio., 17: 5968-5975).

[2] = molecular target: T2, wild type Gal3p; experiment: conclusion from Examples 1-3 (localisation, reporter induction, chromatin immunoprecipitation) in yeast with galactose
[3] = molecular target: Gal4p (yeast, UniProt P04386 1-881); experiment: formaldehyde cross-linking and chromatin immunoprecipitation at UASGAL, wild type yeast, un-induced and galactose induced
Protocol: Fold enrichments are indicated (enrichment). […] FIG. 3C illustrates quantitation of promoter occupancy by Gal4p, Gal80p and Gal3p in un-induced and induced cells. Values are means (±standard deviation) of at least five experiments carried out with two sets of independently prepared chromatin samples.
Chromatin immunoprecipitations were performed as described by Braunstein et al., 1993, Genes Dev. 7: 592-604 and Kuras et al. 1999, Nature 399: 609-613. Briefly, wild type Sc723 cells (Blank et al., 1997, Mol. Cell. Biol. 17: 2566-2575) were grown to early exponential growth phase (as measured by absorbance at 600 nm ˜0.4) in 250 mL yeast extract-peptone medium containing 2% glycerol, 3% lactic acid, and 0.05% glucose (−galactose, un-induced). For galactose-induced cultures, galactose was added to the un-induced cultures to a final concentration of 2% and the cultures were incubated for an additional 20 minutes. Formaldehyde was added to a final concentration of 1%, the cultures were incubated for 20 minutes at room temperature, and glycine was added to a final concentration of 300 mM. All the following steps were carried out at 4° C. Cells were washed twice with TBS (20 mM Tris-HCl, 150 mM NaCl, pH 8.0), resuspended in 1 mL lysis buffer (50 mM Tris-HCl pH 8.0, 10 mM EDTA, 1% SDS, 1 mM PMSF), and disrupted by vortexing with glass beads. […]

Sequence of Gal4p (P04386 whole entry, the tested form may be a part): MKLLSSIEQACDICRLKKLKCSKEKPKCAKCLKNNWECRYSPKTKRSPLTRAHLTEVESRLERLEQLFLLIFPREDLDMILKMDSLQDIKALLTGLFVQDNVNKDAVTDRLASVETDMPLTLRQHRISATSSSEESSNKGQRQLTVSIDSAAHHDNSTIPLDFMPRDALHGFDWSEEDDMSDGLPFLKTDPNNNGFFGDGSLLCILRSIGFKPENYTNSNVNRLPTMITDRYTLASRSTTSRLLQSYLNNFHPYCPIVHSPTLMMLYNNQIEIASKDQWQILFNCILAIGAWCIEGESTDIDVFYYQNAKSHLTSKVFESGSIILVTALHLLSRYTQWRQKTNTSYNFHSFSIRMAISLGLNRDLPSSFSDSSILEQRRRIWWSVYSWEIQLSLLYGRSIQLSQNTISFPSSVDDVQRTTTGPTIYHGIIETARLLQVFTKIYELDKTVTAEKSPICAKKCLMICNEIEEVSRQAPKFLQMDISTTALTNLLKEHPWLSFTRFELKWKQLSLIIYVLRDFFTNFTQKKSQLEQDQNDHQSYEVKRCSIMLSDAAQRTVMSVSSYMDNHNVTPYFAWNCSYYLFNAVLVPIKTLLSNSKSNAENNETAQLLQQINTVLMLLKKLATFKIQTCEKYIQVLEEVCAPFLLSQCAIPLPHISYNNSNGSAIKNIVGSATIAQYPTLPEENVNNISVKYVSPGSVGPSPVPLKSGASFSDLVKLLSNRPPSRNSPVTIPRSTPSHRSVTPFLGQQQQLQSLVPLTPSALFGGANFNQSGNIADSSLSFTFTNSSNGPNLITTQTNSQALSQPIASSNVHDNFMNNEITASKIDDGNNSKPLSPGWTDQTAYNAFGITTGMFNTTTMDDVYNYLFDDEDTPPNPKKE

| Binder | binding result [1] | binding result [2] | binding result [3] |
| --- | --- | --- | --- |
| B1 | binds |  |  |
| B2 |  | binds | binds |
